Laboratory results: article PMC9530649 (Cancer Immunology Research, 2022)

B1: recombinant human LAG-3–Fc protein (hLAG-3–hFc) (Fc fusion)
chain: LQPGAEVPVVWAQEGAPAQLPCSPTIPLQDLSLLRRAGVTWQHQPDSGPPAAAPGHPLAPGPHPAAPSSWGPRPRRYTVLSVGPGGLRSGRLPLQPRVQLDERGRQRGDFSLWLRPARRADAGEYRAAVHLRDRALSCRLRLRLGQASMTASPPGSLRASDWVILNCSFSRPDRPASVHWFRNRGQGRVPVRESPHHHLAESFLFLPQVSPMDSGPWGCILTYRDGFNVSIMYNLTVLGLEPPTPLTVYAGAGSRVGLPCRLPAGVGTRSFLTAKWTPPGGGPDLLVTGDNGDFTLRLEDVSQAQAGTYTCHIHLQEQQLNATVTLAIITVTPKSFGSPGSLGKLLCEVTPVSGQERFVWSSLDTPSQRSFSGPWLEAQEAQLLSQPWQCQLYQGERLLGAAVYFTELSSPGAQRSGRAPGALPAGHL
B2: recombinant human fibrinogen-like protein-1 (FGL1)–mFc fusion protein (Fc fusion)
chain: LEDCAQEQMRLRAQVRLLETRVKQQQVKIKQLLQENEVQFLDKGDENTVIDLGSKRQYADCSEIFNDGYKLSGFYKIKPLQSPAEFSVYCDMSDGGGWTVIQRRSDGSENFNRGWKDYENGFGNFVQKHGEYWLGNKNLHFLTTQEDYTLKIDLADFEKNSRYAQYKNFKVGDEKNFYELNIGEYSGTAGDSLAGNFHPEVQWWASHQRMKFSTWDRDHDNYEGNCAEEDQSGWWFNRCHSANLNGVYYSGPYTAKTDNGIVWYTWHGWWYSLKSVVMKIRPNDFIPNVI

What was measured:
[1] = biological target: recombinant human LAG-3–Fc protein (hLAG-3–hFc) (human) (UniProt P18627); experiment: SPR
[2] = biological target: recombinant human LAG-3–Fc protein (hLAG-3–hFc) (human) (UniProt P18627); experiment: ELISA
[3] = biological target: hLAG-3–mFc (Homo sapiens) (UniProt P18627); experiment: flow cytometry on cells
[4] = biological target: cynomolgus monkey LAG-3 (cynomolgus monkey (endogenous in primary CD4+ T cells)); experiment: flow cytometry on cells
[5] = biological target: full-length human LAG-3 on CHO-S cells (CHO-huLAG-3) (Homo sapiens) (UniProt P18627); experiment: flow cytometry on cells
[6] = biological target: B2; experiment: ELISA
[7] = biological target: B1; experiment: BLI
[8] = biological target: T1, LAG-3 D1 insertion-loop peptide P60[…]75 (Homo sapiens); experiment: ELISA
T1 chain: PGPHPAAPSSWGPRPR

native human LAG-3 = native human LAG-3 (Homo sapiens, endogenous, UniProt P18627); experiment: immunostaining of cells or tissue
[9] = biological target: human LAG-3 fusion protein (used for pre-absorption of LAG-3.1-G4P-FITC) (Homo sapiens, UniProt P18627); experiment: immunostaining of cells or tissue
[10] = biological target: LAG-3 endogenous in normal human pituitary (adenohypophysis) (Homo sapiens, endogenous, UniProt P18627); experiment: immunostaining of cells or tissue

relatlimab (antibody)
Kd [1]: 0.12 nM
EC50 [2]: 0.49 nM
IC50 [2]: 0.019 nM
IC50 [3]: 0.67 nM
EC50 [4]: 29.1 nM
EC50 [5]: 1.46 nM

relatlimab Fab fragment (Fab 3.5)
Kd [1]: 10 nM

B1
EC50 [6]: 0.085 nM

B2
Kd [7]: > 1000 nM

B3: LAG3.1-G4P (antibody, V domains shown)
VH: QVQLQQWGAGLLKPSETLSLTCAVYGGSFSDYYWNWIRQPPGKGLEWIGEINHNGNTNSNPSLKSRVTLSLDTSKNQFSLKLRSVTAADTAVYYCAFGYSDYEYNWFDPWGQGTLVTVSS
VL: EIVLTQSPATLSLSPGERATLSCRASQSISSYLAWYQQKPGQAPRLLIYDASNRATGIPARFSGSGSGTDFTLTISSLEPEDFAVYYCQQRSNWPLTFGQGTNLEIK
EC50 [8]: 0.44 nM
binding result (native human LAG-3): binds

B4: LAG-3.1-G4P-FITC (fluoresceinated LAG3.1-G4P, parent antibody of relatlimab) (antibody, V domains shown)
VH: QVQLQQWGAGLLKPSETLSLTCAVYGGSFSDYYWNWIRQPPGKGLEWIGEINHNGNTNSNPSLKSRVTLSLDTSKNQFSLKLRSVTAADTAVYYCAFGYSDYEYNWFDPWGQGTLVTVSS
VL: EIVLTQSPATLSLSPGERATLSCRASQSISSYLAWYQQKPGQAPRLLIYDASNRATGIPARFSGSGSGTDFTLTISSLEPEDFAVYYCQQRSNWPLTFGQGTNLEIK
binding result [9]: binds
binding result [10]: binds
